Source: US6159704, “Phosphatase modulator” (Novartis AG, dated 2000)

B1: PP2Ac^100-309 fused to the GAL4 DNA binding domain (enzyme)
chain: LVALKVRYRERITILRGNHESRQITQVYGFYDECLRKYGNANVWKYFTDLFDYLPLTALVDGQIFCLHGGLSPSIDTLDHIRALDRLQEVPHEGPMCDLLWSDPDDRGGWGISPRGAGYTFGQDISETFNHANGLTLVSRAHQLVMEGYNWCHDRNVVTIFSAPNYCYRCGNQAAIMELDDTLKYSFLQFDPAPRRGEPHVTRRTPDYFL
B2: PP2Ac^150-309 fused to the GAL4 DNA binding domain (enzyme)
chain: FDYLPLTALVDGQIFCLHGGLSPSIDTLDHIRALDRLQEVPHEGPMCDLLWSDPDDRGGWGISPRGAGYTFGQDISETFNHANGLTLVSRAHQLVMEGYNWCHDRNVVTIFSAPNYCYRCGNQAAIMELDDTLKYSFLQFDPAPRRGEPHVTRRTPDYFL
B4: full length human PR55α fused to the GAL4 DNA binding domain (other)
chain: MAGAGGGNDIQWCFSQVKGAVDDDVAEADIISTVEFNHSGELLATGDKGGRVVIFQQEQENKIQSHSRGEYNVYSTFQSHEPEFDYLKSLEIEEKINKIRWLPQKNAAQFLLSTNDKTIKLWKISERDKRPEGYNLKEEDGRYRDPTTVTTLRVPVFRPMDLMVEASPRRIFANAHTYHINSISINSDYETYLSADDLRINLWHLEITDRSFNIVDIKPANMEELTEVITAAEFHPNSCNTFVYSSSKGTIRLCDMRASALCDRHSKLFEEPEDPSNRSFFSEIISSISDVKFSHSGRYMMTRDYLSVKIWDLNMENRPVETYQVHEYLRSKLCSLYENDCIFDKFECCWNGSDSVVMTGSYNNFFRMFDRNTKRDITLEASRENNKPRTVLKPRKVCASGKRKKDEISVDSLDFNKKILHTAWHPKENIIAVATTNNLYIFQDKVN

Key:
[1] = target: full length human eRF1 fused to the GAL4 transactivation domain (yeast; human, UniProt P62495); assay: yeast two-hybrid: His growth (HF7c) and colony colour in filter β-Gal assay (SFY526)
Excerpt: PCR products encoding three N-terminal (PP2Ac^50-309, PP2Ac^100-309 and PP2Ac^150-309) and three C-terminal (PP2Ac^1-259, PP2Ac^1-209 and PP2Ac^1-159) truncations of PP2Acα are subcloned into pGBT9 in-frame with the GAL4 DNA binding domain. Control plasmids encoding wild-type GAL4 protein (pCL1), SV40 large T antigen (pTD1), p53 (pVA3) and lamin C (pLAM5'), the latter three fused to the appropriate domains of GAL4, are provided by the manufacturer and used for control interactions. Expression constructs are transformed into *S. cerevisiae* host strains SFY526 (lacZ reporter gene) and HF7c (lacZ and HIS3 reporter genes). […] The expression of the lacZreporter gene is determined by measuring β-galactosidase activity using 5-bromo-4-chloro-3-indolyl-β-D-galactoside [X-Gal] and O-nitrophenyl-β-D-galactoside [ONPG] as substrates, whereas the expression of HIS3 reporter gene is assessed by monitoring growth on triple selective SD medium lacking leucine, tryptophan and histidine. All media and reagents are prepared according to the manufacturer's recommendations. Transcriptional activation of reporter genes driven by wild-type GAL4 protein or brought about by the interaction between SV40 largeT and p53 are used as positive controls. To exclude intrinsic transcriptional activation capacity or non-specific binding of either molecules to unrelated proteins, cotransformations with the empty vector or vector encoding human lamin C fused to the opposite domain of GAL4 are used as negative controls.

[2] = target: PP2Ac^1-209 fused to the GAL4 DNA binding domain (yeast; human, UniProt P04386); assay: yeast two-hybrid, empty vector control: His growth (HF7c) and filter β-Gal colour (SFY526)
[3] = target: B4; assay: as above
[4] = target: B2; assay: as above
[5] = target: PP2Ac^50-309 fused to the GAL4 DNA binding domain (yeast; human, UniProt P04386); assay: as above
[6] = target: PP2Ac^1-259 fused to the GAL4 DNA binding domain (yeast; human, UniProt P04386); assay: as above
[7] = target: full length human PP2Acα fused to the GAL4 DNA binding domain (yeast; human); assay: as above
[8] = target: B1; assay: as above
[9] = target: PP2Ac^1-159 fused to the GAL4 DNA binding domain (yeast; human, UniProt P04386); assay: as above
[10] = target: full length human PR65α fused to the GAL4 DNA binding domain (yeast; human); assay: as above

Measured: binding result

B1
no binding: [1]

B2
no binding: [1]

B3: GAL4 transactivation domain alone (empty vector pGAD424) (other)
chain: ANFNQSGNIADSSLSFTFTNSSNGPNLITTQTNSQALSQPIASSNVHDNFMNNEITASKIDDGNNSKPLSPGWTDQTAYNAFGITTGMFNTTTMDDVYNYLFDDEDTPPNPKKE
not listed: [1]
no binding: all other assays above

B4
no binding: [1]
